Results on eleven molecules are retold here after article PMC7156744, “CdbA is a DNA-binding protein and c-di-GMP receptor important for nucleoid organization and segregation in Myxococcus xanthus” (Nature Communications, 2020).

The target in data set [1] is T1, CdbA (Myxococcus xanthus, UniProt Q1D489).
T1 construct: gene MXAN_4361; full-length CdbA-His6 (67 amino acids), tetramer
The data set can be described thus: ITC (also DRaCALA, SEC, HDX-MS; EMSA shows inhibition of DNA binding).

For data set [2], the target named is T2, CdbA-His6 (Myxococcus xanthus DK1622) (UniProt Q1D489).
T2 sequence: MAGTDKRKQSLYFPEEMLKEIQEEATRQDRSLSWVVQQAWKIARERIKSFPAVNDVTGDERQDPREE
The experiment in a line: EMSA. The settings on record: 10x buffer: 380 mM HEPES, 380 mM NaCl, 50 mM MgCl2, 50% glycerol, 10 mM DTT, 15 ng/ul poly(dI-dC), 50 ng probe, 30 C 30 min, 10% PAGE 1x TBE 4 C, pH not …. (A gel shift assay detects complexes by their altered migration in electrophoresis.)

Data set [3] addresses CdbA-His6 (C-terminally His6-tagged CdbA, MXAN_4361) (Myxococcus xanthus). The experiment in a line: crystal structure; crystal form two (tetrameric form) of full-length CdbA-His6, 0.1 M sodium malonate, 0.1 M HEPES-NaOH pH 7.0, 30% polyacrylic acid sodium salt 2100; molecular replacement; three copies in the asymmetric unit.
Data set [4] has the same target. The experiment in a line: crystal structure; crystal form one (dimeric form) of full-length CdbA-His6, 0.1 M MgCl2, 0.1 M HEPES-NaOH pH 7.0, 15% PEG 4000; SAD phasing with a Pt derivative; residues 5-52 traced.
The target is the same in data set [5]. The experiment in a line: SEC; analytical SEC, 200 µM CdbA wild-type or variant without c-di-GMP, Superdex S200 Increase 10/300 GL, SEC buffer (20 mM HEPES-Na pH 7.5, 200 mM NaCl, 20 mM MgCl2, 20 mM KCl), 4 °C; oligomer size from apparent molecular mass. On the technique in general: SEC sorts molecules by how far they enter the pores of the column.
The target is the same in data set [6]. The data set can be described thus: crystal structure; crystal form one (dimeric form) of full-length CdbA-His6, 0.1 M MgCl2, 0.1 M HEPES-NaOH pH 7.0, 15% PEG 4000; SAD phasing with a Pt derivative; residues 5-52 traced. The source holds these as a separate data set.
Data set [7] shares this target. The experiment in a line: SEC; analytical SEC, 200 µM CdbA incubated with 200 µM c-di-GMP for 1 minute at 25 °C, Superdex S200 Increase 10/300 GL, SEC buffer, 4 °C; oligomer size from apparent molecular mass.
Data set [8] addresses CdbA^K8A/S10A-His6 (Myxococcus xanthus). The data set can be described thus: SEC; analytical SEC, 200 µM CdbA wild-type or variant without c-di-GMP, Superdex S200 Increase 10/300 GL, SEC buffer (20 mM HEPES-Na pH 7.5, 200 mM NaCl, 20 mM MgCl2, 20 mM KCl), 4 °C; oligomer size from apparent molecular mass.
For data set [9], the target named is CdbA^R27A/R30A-His6 (Myxococcus xanthus). The description is as above.
Data set [10] deals with CdbA-His6 (Myxococcus xanthus DK1622). The data set can be described thus: EMSA. To be noted: 10x buffer: 380 mM HEPES, 380 mM NaCl, 50 mM MgCl2, 50% glycerol, 10 mM DTT, 15 ng/ul poly(dI-dC), 50 ng probe, 30 C 30 min, 10% PAGE 1x TBE 4 C, pH not ….

Consider `Nc1nc2c(ncn2[C@@H]2O[C@@H]3CO[P@](=O)(O)O[C@H]4[C@@H](O)[C@H](n5cnc6c(=O)[nH]c(N)nc65)O[C@@H]4CO[P@](=O)(O)O[C@H]3[C@H]2O)c(=O)[nH]1` [c-di-GMP], for which, in [1], the Kd (in general, the concentration at which binding is half-saturated) is approximately 83 nM.
As to “ACTTGGGTCTCCGGGGCGGATTCGGGGTGACGACCTGAACACACCTGGGCCGTTATCCGACAGACTCCCAAGTGGGTCAACGGTTTCCAAGGACTCATTCCGAGGTCGCACGGTCCGTCCCCGTGCTCGTCCAGTTGCACGTAAGCTGTGCAACCATGCGCGAAAAAGGAAACGCCCCGGACTCCACGAGGAAGTCCGGGGCGCTTCGGAAAGAGGGACCGCCTAGAGAAATCTCCAGGCGGGCCCGTGG (double strand) [cdbAB promoter]”, in data set [2], the Kd was found to be 900 nM.
On to “CdbA-His6 (C-terminally His6-tagged CdbA, MXAN_4361) (natural protein)”, for which the stoichiometry N – broadly, a count of units in the complex or per binding partner – in data set [3] stood at 4; in [4] it was 4; in [5] it was 4; in [6], 2; in [7], 4.
In the case of CdbA^K8A/S10A-His6 (natural protein), the stoichiometry N in [8] was determined as 4.
Regarding CdbA^R27A/R30A-His6 (natural protein), the stoichiometry N in data set [9] is 4.
Turning to “GACACACCTTCTCCGAGCGGCTTGCGGTGTTCGGGGGACTCGGGCTTGCGCTCGGGTTCGGCGCGGGCCTGCGCGGAGACGCGGAAGCCTTCACTGGGGTTCAGTGGATCTTCCCGGTCGGATCGAAGTGAATTTCTTGCGATCAGACCGACTTGTGAGAATGTACGCGCATCTACAGGAGGTCGCGCACATGGACATGAATCCCCGTCTTACCTCAGTGGTCTTCCGGCTCAACCGCGAGAAGCTCGAC (double strand) [MXAN_4058 promoter, two repeats mutated]”, in [2], the Kd stood at 2500 nM.
“GACACACCTTCTCCGAGCGGCTTGCGGTGTTCGGGGGACTCGGGCTTGCGCTCGGGTTCGGCGCGGGCCTGCGCGGAGACGCGGAAGCCTTCACTGGGGTTCAGTGGATCTTCCCGGTCGGATCGAAGTGAATTTCTTGCGATCAGACCGACTTGTGAGAATGTGTGCGCATCTACAGGAGGTCGCGCACATGGACATGAATCCCCGTCTTACCTCAGTGGTCTTCCGGCTCAACCGCGAGAAGCTCGAC (double strand) [MXAN_4058 promoter, one repeat mutated]” registered a Kd in data set [2] of 1100 nM.
In data set [2], “GACACACCTTCTCCGAGCGGCTTGCGGTGTTCGGGGGACTCGGGCTTGCGCTCGGGTTCGGCGCGGGCCTGCGCGGAGACGCGGAAGCCTTCACTGGGGTTCAGTGGATCTTCCCGGTCGGATCGAAGTGAATTTCTTGCGATCAGACCGACTTGTGAGAATGTGTGCGCATCTGTAGGAGGTCGCGCACATGGACATGAATCCCCGTCTTACCTCAGTGGTCTTCCGGCTCAACCGCGAGAAGCTCGAC (double strand) [peak rank #1 fragment (MXAN_4058 promoter), WT]” registered a Kd of 400 nM.
Turning to cdbAB promoter, the Kd in data set [10] was 900 nM.
Consider no-peak control fragment, for which the Kd in data set [10] is 4000 nM.
Consider “peak rank #1 fragment (MXAN_4058 promoter), WT”, for which, in [10], the Kd was determined as 400 nM.
